This is an account of results in IntAct's records for PubMed 15066285.

B1: Protein pop-1 (Caenorhabditis elegans), Q10666 (parent)
chain: MMADEELGDEVKVFRRDEDADDDPMISGETSEQQLADDKKEAVMEAELDGAGRNPSIDVLKSAFPKVEPMSPSFPGLMSHFSPGYSAAALPMFMPLFMNPYAAALRSPSLMFPMGAMSPTFPMFPPSPVYGAAIAAAAAKQHFENMAPLNMRAGHPMNQMGMPPYMHPSSMAPQNVDRRAQGGGKAKKDDHVKKPLNAFMWFMKENRKALLEEIGNNEKQSAELNKELGKRWHDLSKEEQAKYFEMAKKDKETHKERYPEWSARENYAVNKKKTKKRRDKSIPSENNDQKKCRARFGVNNTEMWCKFCKRKKKCEYATDRSGGSDITDSQDGRGTSGAYSSSSESPSPKANAGIALTTQQQQAAMMHTMLMQMRLGSTTGASTHVPSPLASSSAGRSPLDANASDSESDVEEEEDEQIDPTVMQQTHDMLMQESMCTI
partner: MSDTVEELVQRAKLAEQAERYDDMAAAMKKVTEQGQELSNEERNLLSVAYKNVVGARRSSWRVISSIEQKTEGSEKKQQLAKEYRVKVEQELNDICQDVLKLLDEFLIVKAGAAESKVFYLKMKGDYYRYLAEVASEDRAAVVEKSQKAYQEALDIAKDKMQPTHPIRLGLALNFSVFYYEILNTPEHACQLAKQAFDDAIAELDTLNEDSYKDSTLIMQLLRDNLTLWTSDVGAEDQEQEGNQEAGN

The variants in this assay derive from B1. Conditions: with 14331_caeel par-5, P41932.
For S107A;S109A;S118A;T120A;S127A, the “effect of a mutation on the interaction” value was “disrupting interaction”.
